{"source": "IntAct's records for PubMed 18309292", "parents": {"B1": {"name": "Ras-related protein Rap-1b (Homo sapiens), P61224 (parent)", "chain": "MREYKLVVLGSGGVGKSALTVQFVQGIFVEKYDPTIEDSYRKQVEVDAQQCMLEILDTAGTEQFTAMRDLYMKNGQGFALVYSITAQSTFNDLQDLREQILRVKDTDDVPMILVGNKCDLEDERVVGKEQGQNLARQWNNCAFLESSAKSKINVNEIFYDLVRQINRKTPVPGKARKKSSCQLL"}}, "data": [{"variants_of": "B1", "conditions": "with rpgp1_human RAP1GAP", "values": [{"variant": "MREYKLVVLGSGGVGKSALTVQFVQGIFVEKYDPTIEDSYRKQVEVDAQQCMLEILDTAGTEEFTAMRDLYMKNGQGFALVYSITAQSTFNDLQDLREQILRVKDTDDVPMILVGNKCDLEDERVVGKEQGQNLARQWNNCAFLESSAKSKINVNEIFYDLVRQINRKTPVPGKARKKSSCQLL", "effect of a mutation on the interaction": "disrupting interaction"}]}, {"variants_of": "B1", "conditions": "with rpgp1_human RAP1GAP", "remark": "another data set of the same source", "values": [{"variant": "MREYKLVVLGSGGVGKSALTVQFVQGIFVEKYDPTIEDSYRKQVEVDAQQCMLEILDTAGTEQATAMRDLYMKNGQGFALVYSITAQSTFNDLQDLREQILRVKDTDDVPMILVGNKCDLEDERVVGKEQGQNLARQWNNCAFLESSAKSKINVNEIFYDLVRQINRKTPVPGKARKKSSCQLL", "effect of a mutation on the interaction": "disrupting interaction"}]}]}
